Source: the supplement of paper PMC9112550, “Optimization of the antimicrobial peptide Bac7 by deep mutational scanning” (BMC Biology, 2022)

test system: Escherichia coli TOP10; experiment: shrunken log2 fold change of peptide-encoding DNA abundance (4.5 h post-induction vs induction); higher = less antimicrobial activity (less host growth inhibition); details: time post-induction: 4.5 h; library: site-saturation at positions 5, 18, 19, 20
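Note: peptides expressed intracellularly from a pBAD plasmid library in pooled LB shake-flask culture, induced with 0.3% L-arabinose, DNA abundance read by NGS, three biological replicates, DESeq2 with apeglm shrinkage.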

Sequence | shrunken log2 fold change
RRIRMRPPRLPRPRPRPMQMPRP | 0.671
RRIRMRPPRLPRPRPRPMQRPRP | 0.556
RRIRMRPPRLPRPRPRPMSRPRP | 0.0997
RRIRMRPPRLPRPRPRPMTKPRP | 0.0956
RRIRMRPPRLPRPRPRPMTLPRP | 0.113
RRIRMRPPRLPRPRPRPMVNPRP | -0.254
RRIRMRPPRLPRPRPRPMWDPRP | 0.128
RRIRMRPPRLPRPRPRPMWGPRP | 0.285
RRIRMRPPRLPRPRPRPMWLPRP | 0.208
RRIRMRPPRLPRPRPRPMWSPRP | -0.027
RRIRMRPPRLPRPRPRPMYYPRP | -0.339
RRIRMRPPRLPRPRPRPNACPRP | 0.0451
RRIRMRPPRLPRPRPRPNAGPRP | 0.416
RRIRMRPPRLPRPRPRPNCDPRP | 0.194
RRIRMRPPRLPRPRPRPNCIPRP | 0.11
RRIRMRPPRLPRPRPRPNDGPRP | -0.0703
RRIRMRPPRLPRPRPRPNDSPRP | -0.0147
RRIRMRPPRLPRPRPRPNEDPRP | 0.186
RRIRMRPPRLPRPRPRPNFRPRP | 0.0542
RRIRMRPPRLPRPRPRPNHHPRP | -0.592

Sequence | shrunken log2 fold change
RRIRMRPPRLPRPRPRPNHLPRP | -0.0575
RRIRMRPPRLPRPRPRPNHMPRP | -0.01
RRIRMRPPRLPRPRPRPNIMPRP | -0.466
RRIRMRPPRLPRPRPRPNKRPRP | 0.261
RRIRMRPPRLPRPRPRPNKYPRP | -0.148
RRIRMRPPRLPRPRPRPNLFPRP | 0.124
RRIRMRPPRLPRPRPRPNLNPRP | -0.0299
RRIRMRPPRLPRPRPRPNMVPRP | -0.147
RRIRMRPPRLPRPRPRPNNFPRP | -0.169
RRIRMRPPRLPRPRPRPNPSPRP | 0.758
RRIRMRPPRLPRPRPRPNQKPRP | 0.00203
RRIRMRPPRLPRPRPRPNREPRP | 0.0182
RRIRMRPPRLPRPRPRPNSRPRP | 0.169
RRIRMRPPRLPRPRPRPNTNPRP | 0.128
RRIRMRPPRLPRPRPRPNWLPRP | 0.286
RRIRMRPPRLPRPRPRPPADPRP | 2.99
RRIRMRPPRLPRPRPRPPAPPRP | 2.01
RRIRMRPPRLPRPRPRPPAWPRP | 1.22
RRIRMRPPRLPRPRPRPPDIPRP | 0.121
RRIRMRPPRLPRPRPRPPDQPRP | 2.01

Sequence | shrunken log2 fold change
RRIRMRPPRLPRPRPRPPEYPRP | -0.035
RRIRMRPPRLPRPRPRPPFFPRP | 0.528
RRIRMRPPRLPRPRPRPPGHPRP | 1.03
RRIRMRPPRLPRPRPRPPGSPRP | 0.904
RRIRMRPPRLPRPRPRPPICPRP | 0.292
RRIRMRPPRLPRPRPRPPMDPRP | 0.343
RRIRMRPPRLPRPRPRPPMFPRP | 0.225
RRIRMRPPRLPRPRPRPPNEPRP | 0.2
RRIRMRPPRLPRPRPRPPNKPRP | 0.604
RRIRMRPPRLPRPRPRPPNSPRP | 0.128
RRIRMRPPRLPRPRPRPPSIPRP | 0.411
RRIRMRPPRLPRPRPRPPSLPRP | 0.619
RRIRMRPPRLPRPRPRPPSTPRP | 0.97
RRIRMRPPRLPRPRPRPPVRPRP | 0.458
RRIRMRPPRLPRPRPRPPVSPRP | 1.27
RRIRMRPPRLPRPRPRPPWCPRP | 0.831
RRIRMRPPRLPRPRPRPPWLPRP | 0.568
RRIRMRPPRLPRPRPRPPWYPRP | 0.117
RRIRMRPPRLPRPRPRPPYLPRP | 0.204
RRIRMRPPRLPRPRPRPPYPPRP | 0.134
